What was measured:
[1] = biological target: T1, human interferon gamma (hIFNγ) (human, UniProt P01579 24-166, limits assumed); assay: SPR (Biacore), INFγ immobilised, IgG injected
T1 construct: also called INFγ
T1 sequence (looked up): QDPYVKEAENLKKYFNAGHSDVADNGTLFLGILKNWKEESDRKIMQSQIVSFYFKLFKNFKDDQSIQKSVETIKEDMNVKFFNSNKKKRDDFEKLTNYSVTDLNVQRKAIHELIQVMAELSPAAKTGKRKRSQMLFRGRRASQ
Experimental: (§1) FIGS. 12A and 12B are a series of illustrations and graphs depicting SPR analysis of IgGκλ bispecific antibodies. In FIG. 12A, INFγ was immobilized at the surface of the Biacore chip and anti-IL6RC monospecific antibody ([…]), anti-INFγ monospecific antibody (IgGλ) and, anti-IL6RC/anti-INFγ bispecific antibody (IgGκλ) were injected on the surface followed by injection of IL6RC. In FIG. 12B, the anti-IL6RC/anti-INFγ bispecific antibody (IgGκλ) was immobilized on the chip surface and anti human-Kappa and anti-human Lambda antibodies were injected at the same concentration. The experiment was repeated inverting the order of antibody injection with identical results.
(§2) The capacity of the bispecific IgGκλ to interact with both targets simultaneously was tested by SPR. Biotinylated INFγ was immobilized on streptavidin coating CM5 Biacore chip. The monospecific and the bispecific antibodies were injected on this surface followed by injection of IL6RC. […] SPR was also used to assess the relative amounts of Kappa and Lambda light chains in the purified bispecific antibody. IgGκλ was directly immobilized via amine coupling on the surface of a CM5 Biacore chip and an anti-human CKappa antibody was injected followed by an anti-human CLambda antibody at the same concentration.

[2] = biological target: T1, human interferon gamma (hIFNγ); assay: SPR, Biacore 2000, IgG captured on anti-human IgG, antigen as analyte, 1:1 Langmuir fit
Experimental: The affinity and binding kinetics of monospecific anti-INFγ IgGλ, the anti-IL6RC IgGκ and the bispecific IgGκλ antibodies were characterized on a Biacore 2000 instrument (Biacore AB, Uppsala, Sweden). 200RU of a goat anti-human polyclonal IgG (ahIgG; Biacore) were immobilized by EDC/NHS chemistry on a CM5 Biacore chip. This surface was used to capture monospecific or bispecific human IgG. The surface was regenerated after each cycle by injection of 10 mM glycine pH=1.5 at 30 μL/min, for 30 s followed by 1 min of stabilization time in HBS-EP buffer. […] Similar affinity values were obtained for the monospecific antibodies and the bispecific IgGκλ antibodies.

[3] = biological target: T2, hIL6 Receptor Complex (IL-6/IL-6R receptor complex) (human, UniProt P08887 20-358; P05231 30-212, limits assumed); assay: SPR (Biacore), INFγ immobilised, IgGλ injected, then IL6RC injected
T2 construct: also called IL6RC; hIL6RC
Experimental: as §1, §2

Binder | binding result [1] | Kd [2] [nM] | koff [2] [s⁻¹] | kon [2] [M⁻¹ s⁻¹] | binding result [3]
monospecific anti-IL6RC IgGκ antibody (antibody, V domains shown, also called IgGκκ; mono κ) VH: not shown VL: EIVLTQSPATLSLSPGERATLSCRASQSVSSYLAWYQQKPGQAPRLLIYDASNRATGIPARFSGSGSGTDFTLTISSLEPEDFAVYYCQQWLPTTPATFGQGTKVEIKR | no binding | – | – | – | –
monospecific anti-INFγ IgGλ antibody (antibody, V domains shown, also called IgGλλ; mono λ) VH: not shown VL: NFMLTQPHSVSESPGKTVTISCTRSSGSIASNYVQWYQQRPGSSPTTVIYEDNQRPSGVPDRFSGSIDSSSNSASLTISGLKTEDEADYYCQSQSWDGNHIVFGGGTKLTVLG | – | 0.196 | 0.000119 | 608000 | no binding
anti-IL6RC/anti-INFγ bispecific IgGκλ antibody (bispecific antibody, also called κλ-body; κλ body) heavy: not shown light 1: not shown light 2: NFMLTQPHSVSESPGKTVTISCTRSSGSIASNYVQWYQQRPGSSPTTVIYEDNQRPSGVPDRFSGSIDSSSNSASLTISGLKTEDEADYYCQSQSWDGNHIVFGGGTKLTVLGQPKAAPSVTLFPPSSEELQANKATLVCLISDFYPGAVTVAWKADSSPVKAGVETTTPSKQSNNKYAASSYLSLTPEQWKSHRSYSCQVTHEGSTVEKTVAPTECS | – | 0.184 | 0.000169 | 919000 | –
